Positions count from the first letter of the chain named. Names may count otherwise.

The values below come from publication PMC4014428, “Enhanced Interaction between Pseudokinase and Kinase Domains in Gcn2 stimulates eIF2α Phosphorylation in Starved Cells” (PLoS Genetics, 2014).

Assay [1] addresses T1, HA epitope-tagged LexA fusion to a Gcn2 KD segment (residues 720–999) (S. cerevisiae, UniProt P15442 720-999).
T1 construct: the plasmid is PGAL-LexA-HA-GCN2 (720–999); also called HA-LexA-KD; LexA-HA-KD; source: yeast gcn2Δ strain HQY132, high-copy-number plasmid, in whole cell extract; not shown: LexA, N-terminal, kept; HA, N-terminal, kept
The assay can be described thus: co-IP; WCEs (50 µg protein) of gcn2Δ yeast HQY132 co-expressing LexA-HA-KD(720–999) and Gcn2 (WT or mutant) immunoprecipitated with anti-HA antibodies; blots with anti-Gcn2 and anti-LexA; pellet:input ratios of Gcn2 normalised to LexA-HA-KD in the pellet, three experiments. The settings on record: partners not purified.

Assay [2] has as its target T1, HA epitope-tagged LexA fusion to a Gcn2 …. The assay can be described thus: co-IP; [35S]methionine-labelled in vitro translated YKD fragments incubated with 50 µg WCE of gcn2Δ yeast HQY132 expressing LexA-HA-KD(720–999); anti-HA agarose, 4°C 2 h, breaking buffer (50 mM Tris/HCl pH 7.5, 50 mM NaCl, 0.1% Triton, 1 mM DTT); SDS-PAGE and fluorography; pellet:input ratios normalised to WT YKD. The settings on record: partners not purified.

B1: Gcn2-ΔYKD (enzyme, S. cerevisiae, UniProt P15442 1-1659, looked up)
chain: MSLSHLTLDQYYEIQCNELEAIRSIYMDDFTDLTKRKSSWDKQPQIIFEITLRSVDKEPVESSITLHFAMTPMYPYTAPEIEFKNVQNVMDSQLQMLKSEFKKIHNTSRGQEIIFEITSFTQEKLDEFQNVVNTQSLEDDRLQRIKETKEQLEKEEREKQQETIKKRSDEQRRIDEIVQRELEKRQDDDDDLLFNRTTQLDLQPPSEWVASGEAIVFSKTIKAKLPNNSMFKFKAVVNPKPIKLTSDIFSFSKQFLVKPYIPPESPLADFLMSSEMMENFYYLLSEIELDNSYFNTSNGKKEIANLEKELETVLKAKHDNVNRNLVSESVNSNSLELTPGDTITVRGNGGRTLSQSSIRRRSFNVGSRFSSINPATRSRYASDFEEIAVLGQGAFGQVVKARNALDSRYYAIKKIRHTEEKLSTILSEVMLLASLNHQYVVRYYAAWLEEDSMDENVFESTDEESDLSESSSDFEENDLLDQSSIFKNRTNHDLDNSNWDFISGSGYPDIVFENSSRDDENEDLDHDTSSTSSSESQDDTDKESKSIQNVPRRRNFVKPMTAVKKKSTLFIQMEYCENRTLYDLIHSENLNQQRDEYWRLFRQILEALSYIHSQGIIHRDLKPMNIFIDESRNVKIGDFGLAKNVHRSLDILKLDSQNLPGSSDNLTSAIGTAMYVATEVLDGTGHYNEKIDMYSLGIIFFEMIYPFSTGMERVNILKKLRSVSIEFPPDFDDNKMKVEKKIIRLLIDHDPNKRPGARTLLNSGWLPVKHQDEVIKEALKSLSNPSSPWQQQVRESLFNQSYSLTNDILFDNSVPTSTPFANILRSQMTEEVVKIFRKHGGIENNAPPRIFPKAPIYGTQNVYEVLDKGGTVLQLQYDLTYPMARYLSKNPSLISKQYRMQHVYRPPDHSRSSLEPRKFGEIDFDIISKSSSESGFYDAESLKIIDEILTVFPVFEKTNTFFILNHADILESVFNFTNIDKAQRPLVSRMLSQVGFARSFKEVKNELKAQLNISSTALNDLELFDFRLDFEAAKKRLYKLMIDSPHLKKIEDSLSHISKVLSYLKPLEVARNVVISPLSNYNSAFYKGGIMFHAVYDDGSSRNMIAAGGRYDTLISFFARPSGKKSSNTRKAVGFNLAWETIFGIAQNYFKLASGNRIKKRNRFLKDTAVDWKPSRCDVLISSFSNSLLDTIGVTILNTLWKQNIKADMLRDCSSVDDVVTGAQQDGIDWILLIKQQAYPLTNHKRKYKPLKIKKLSTNVDIDLDLDEFLTLYQQETGNKSLINDSLTLGDKADEFKRWDENSSAGSSQEGDIDDVVAGSTNNQKVIYVPNMATRSKKANKREKWVYEDAARNSSNMILHNLSNAPIITVDALRDETLEIISITSLAQKEEWLRKVFGSGNNSTPRSFATSIYNNLSKEAHKGNRWAILYCHKTGKSSVIDLQR
notes: Gcn2, S. cerevisiae, otherwise full length, lacking the pseudokinase domain (YKD); also called gcn2-Δ324-538; source: yeast gcn2Δ strain HQY132, high-copy plasmid (p630 backbone), in whole cell extract
As to B1, the “proportion co-immunoprecipitated relative to WT Gcn2” value in assay [1] is ~0.33 fraction of WT.

B2: Gcn2 YKD fragment (230–604) L527I (domain or fragment, S. cerevisiae, UniProt P15442 230-604, looked up)
chain: MFKFKAVVNPKPIKLTSDIFSFSKQFLVKPYIPPESPLADFLMSSEMMENFYYLLSEIELDNSYFNTSNGKKEIANLEKELETVLKAKHDNVNRLFGYTVERMGRNNATFVWKIRLLTEYCNYYPLGDLIQSVGFVNLATARIWMIRLLEGLEAIHKLGIVHKCINLETVILVKDADFGSTIPKLVHSTYGYTVLNMLSRYPNKNGSSVELSPSTWIAPELLKFNNAKPQRLTDIWQLGVLFIQIISGSDIVMNFETPQEFLDSTSMDETLYDLLSKMLNNDPKKRLGTLELLPMKFIRTNIDSTINRFNLVSESVNSNSLELTPGDTITVRGNGGRTLSQSSIRRRSFNVGSRFSSINPATRSRYASDFEEIAV
modifications: [35S]-methionine-labeled
notes: Gcn2 YKD segment, S. cerevisiae, residues 230-604; also called L527I YKD fragment; source: in vitro translated (TNT T7 Coupled Reticulocyte Lysate System), partially purified by ammonium sulfate precipitation
For the molecule B2, the “level co-immunoprecipitated relative to WT YKD” value in assay [2] was ~4 fold of WT.

B3: Gcn2 YKD fragment (230–604) T518A/L527I (domain or fragment, S. cerevisiae, UniProt P15442 230-604, looked up)
chain: B2 chain with T289A
modifications: [35S]-methionine-labeled
notes: Gcn2 YKD segment, S. cerevisiae, residues 230-604; also called T518A/L527I YKD fragment; source: in vitro translated (TNT T7 Coupled Reticulocyte Lysate System), partially purified by ammonium sulfate precipitation
Turning to B3, the “level co-immunoprecipitated relative to WT YKD” value in assay [2] was ~4 fold of WT.

B4: Gcn2 YKD fragment (230–604) R528A (domain or fragment, S. cerevisiae, UniProt P15442 230-604, looked up)
chain: B2 chain with I298L, R299A
modifications: [35S]-methionine-labeled
notes: Gcn2 YKD segment, S. cerevisiae, residues 230-604; also called R528A YKD fragment; source: in vitro translated (TNT T7 Coupled Reticulocyte Lysate System), partially purified by ammonium sulfate precipitation
For B4, in assay [2], the “level co-immunoprecipitated relative to WT YKD” value was 60 % of WT.
